From the supplement of paper PMC9112550, “Optimization of the antimicrobial peptide Bac7 by deep mutational scanning” (BMC Biology, 2022)

Test system: Escherichia coli TOP10
Test: shrunken log2 fold change of peptide-encoding DNA abundance (4.5 h post-induction vs induction); higher = less antimicrobial activity (less host growth inhibition)
Details: time post-induction: 4.5 h; library: site-saturation at positions 5, 18, 19, 20
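Also: peptides expressed intracellularly from a pBAD plasmid library in pooled LB shake-flask culture, induced with 0.3% L-arabinose, DNA abundance read by NGS, three biological replicates, DESeq2 with apeglm shrinkage.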

Sequence	shrunken log2 fold change
RRIRIRPPRLPRPRPRPTISPRP	-0.385
RRIRHRPPRLPRPRPRPFYTPRP	-1.02
RRIRGRPPRLPRPRPRPCTWPRP	0.228
RRIRHRPPRLPRPRPRPAARPRP	0.168
RRIRPRPPRLPRPRPRPASRPRP	0.0846
RRIRSRPPRLPRPRPRPGYRPRP	-0.0248
RRIRIRPPRLPRPRPRPAISPRP	0.0106
RRIRNRPPRLPRPRPRPIIAPRP	-0.127
RRIRGRPPRLPRPRPRPYKFPRP	-0.138
RRIRVRPPRLPRPRPRPRYNPRP	-0.381
RRIRARPPRLPRPRPRPYWDPRP	-0.964
RRIRYRPPRLPRPRPRPSPMPRP	-0.486
RRIRQRPPRLPRPRPRPQENPRP	-0.0517
RRIRERPPRLPRPRPRPSIKPRP	-0.755
RRIRLRPPRLPRPRPRPEMHPRP	-0.132
RRIRERPPRLPRPRPRPPVLPRP	0.127
RRIRIRPPRLPRPRPRPFRIPRP	-0.103
RRIRKRPPRLPRPRPRPRNKPRP	-0.08
RRIRMRPPRLPRPRPRPCEPPRP	0.234
RRIRLRPPRLPRPRPRPASQPRP	-0.18
RRIRSRPPRLPRPRPRPIDDPRP	-0.00277
RRIRPRPPRLPRPRPRPWFIPRP	-0.298
RRIRPRPPRLPRPRPRPLCSPRP	-0.431
RRIRWRPPRLPRPRPRPEIQPRP	0.685
RRIRDRPPRLPRPRPRPYRWPRP	-0.146

Sequence	shrunken log2 fold change
RRIRQRPPRLPRPRPRPTEHPRP	-0.00172
RRIRMRPPRLPRPRPRPFTVPRP	-0.00884
RRIRTRPPRLPRPRPRPCRRPRP	-0.111
RRIRMRPPRLPRPRPRPTYDPRP	0.473
RRIRDRPPRLPRPRPRPDPNPRP	0.00812
RRIRTRPPRLPRPRPRPGVVPRP	0.0177
RRIRQRPPRLPRPRPRPNPPPRP	0.0904
RRIRYRPPRLPRPRPRPTQWPRP	0.413
RRIRWRPPRLPRPRPRPTVFPRP	0.255
RRIRFRPPRLPRPRPRPRCNPRP	-0.0427
RRIRTRPPRLPRPRPRPHYGPRP	-0.0891
RRIRKRPPRLPRPRPRPFYDPRP	0.0223
RRIRFRPPRLPRPRPRPNLFPRP	-0.0917
RRIRQRPPRLPRPRPRPQNIPRP	-0.882
RRIRQRPPRLPRPRPRPGMCPRP	0.0819
RRIRFRPPRLPRPRPRPNDCPRP	-0.415
RRIRTRPPRLPRPRPRPINHPRP	-0.718
RRIRTRPPRLPRPRPRPRCTPRP	-0.00178
RRIRCRPPRLPRPRPRPTDGPRP	-0.116
RRIRKRPPRLPRPRPRPPKKPRP	0.0439
RRIRTRPPRLPRPRPRPEAPPRP	0.139
RRIRQRPPRLPRPRPRPTDGPRP	0.178
RRIRCRPPRLPRPRPRPRVKPRP	0.196
RRIRWRPPRLPRPRPRPQQIPRP	-0.0385
RRIRGRPPRLPRPRPRPFECPRP	0.0132

Sequence	shrunken log2 fold change
RRIRTRPPRLPRPRPRPVVVPRP	0.0543
RRIRQRPPRLPRPRPRPIIRPRP	0.00525
RRIRERPPRLPRPRPRPVKWPRP	-0.129
RRIRMRPPRLPRPRPRPMMMPRP	-0.0717
RRIRVRPPRLPRPRPRPWNMPRP	-0.192
RRIRRRPPRLPRPRPRPKASPRP	0.183
RRIRKRPPRLPRPRPRPFVCPRP	0.0717
RRIRGRPPRLPRPRPRPKKNPRP	0.778
RRIRPRPPRLPRPRPRPAPQPRP	0.461
RRIRQRPPRLPRPRPRPLPAPRP	0.214
RRIRYRPPRLPRPRPRPNQRPRP	-0.181
RRIRPRPPRLPRPRPRPFWMPRP	-0.00291
RRIRWRPPRLPRPRPRPKWGPRP	0.463
RRIRHRPPRLPRPRPRPILWPRP	-0.0569
RRIRYRPPRLPRPRPRPPGYPRP	1.43
RRIRSRPPRLPRPRPRPQKPPRP	-0.0986
RRIRPRPPRLPRPRPRPCRAPRP	0.0858
RRIRWRPPRLPRPRPRPCLVPRP	0.144
RRIRGRPPRLPRPRPRPVTVPRP	0.0499
RRIRRRPPRLPRPRPRPIFMPRP	0.294
RRIRDRPPRLPRPRPRPIHVPRP	-0.554
RRIRMRPPRLPRPRPRPAMCPRP	0.124
RRIRVRPPRLPRPRPRPQWFPRP	-0.134
RRIRDRPPRLPRPRPRPSVFPRP	0.423
RRIRRRPPRLPRPRPRPLSQPRP	0.000673

Sequence	shrunken log2 fold change
RRIRARPPRLPRPRPRPDKQPRP	-0.0794
RRIRRRPPRLPRPRPRPWKIPRP	-0.11
RRIRCRPPRLPRPRPRPELDPRP	0.00162
RRIRPRPPRLPRPRPRPWINPRP	-0.719
RRIRDRPPRLPRPRPRPCPLPRP	-0.0882
RRIRMRPPRLPRPRPRPQNGPRP	0.0258
RRIRKRPPRLPRPRPRPMERPRP	-0.024
RRIRFRPPRLPRPRPRPRKSPRP	0.123
RRIRLRPPRLPRPRPRPCFDPRP	-0.293
RRIRSRPPRLPRPRPRPPCYPRP	-0.145
RRIRVRPPRLPRPRPRPTQYPRP	0.166
RRIRNRPPRLPRPRPRPHKWPRP	-0.285
RRIRSRPPRLPRPRPRPCKSPRP	0.00889
RRIRVRPPRLPRPRPRPDGAPRP	0.413
RRIRSRPPRLPRPRPRPITMPRP	-0.639
RRIRLRPPRLPRPRPRPCAGPRP	0.0736
RRIRGRPPRLPRPRPRPTYWPRP	0.186
RRIRNRPPRLPRPRPRPKVKPRP	-0.196
RRIRDRPPRLPRPRPRPMDNPRP	-0.0115
RRIRRRPPRLPRPRPRPIEKPRP	0.149
RRIRLRPPRLPRPRPRPKYPPRP	0.0464
RRIRMRPPRLPRPRPRPQVEPRP	-0.00107
RRIRQRPPRLPRPRPRPWQDPRP	0.07
RRIRDRPPRLPRPRPRPENRPRP	-0.0191
RRIRRRPPRLPRPRPRPVSMPRP	0.22

Sequence	shrunken log2 fold change
RRIRERPPRLPRPRPRPIWAPRP	0.639
RRIRCRPPRLPRPRPRPQFRPRP	-0.434
RRIRVRPPRLPRPRPRPTGIPRP	-0.115
RRIRRRPPRLPRPRPRPESFPRP	0.0965
RRIRHRPPRLPRPRPRPIQKPRP	-0.00174
RRIRYRPPRLPRPRPRPGLPPRP	0.107
RRIRPRPPRLPRPRPRPRDAPRP	0.635
RRIRERPPRLPRPRPRPDALPRP	-0.0722
RRIRCRPPRLPRPRPRPRCGPRP	0.191
RRIRIRPPRLPRPRPRPGEVPRP	0.0961
RRIRIRPPRLPRPRPRPSMSPRP	-0.6
RRIRWRPPRLPRPRPRPLCFPRP	-0.101
RRIRIRPPRLPRPRPRPTESPRP	-0.433
RRIRVRPPRLPRPRPRPRNFPRP	-0.275
RRIRTRPPRLPRPRPRPRPPPRP	0.745
RRIRWRPPRLPRPRPRPCVYPRP	-0.00208
RRIRDRPPRLPRPRPRPVFVPRP	0.225
RRIRGRPPRLPRPRPRPAWMPRP	0.554
RRIRDRPPRLPRPRPRPRFYPRP	0.386
RRIRMRPPRLPRPRPRPLINPRP	-0.231
RRIRTRPPRLPRPRPRPEYKPRP	0.134
RRIRNRPPRLPRPRPRPPMQPRP	0.0237
RRIRRRPPRLPRPRPRPLICPRP	0.119
RRIRTRPPRLPRPRPRPFEVPRP	-0.101
RRIRHRPPRLPRPRPRPSDVPRP	-0.042

Sequence	shrunken log2 fold change
RRIRDRPPRLPRPRPRPTQRPRP	0.746
RRIRPRPPRLPRPRPRPQMPPRP	-0.451
RRIRVRPPRLPRPRPRPPTLPRP	0.252
RRIRKRPPRLPRPRPRPICTPRP	-0.0207
RRIRPRPPRLPRPRPRPENCPRP	0.151
RRIRNRPPRLPRPRPRPLSWPRP	0.235
RRIRGRPPRLPRPRPRPKKWPRP	-0.00138
RRIRQRPPRLPRPRPRPYVVPRP	-0.102
RRIRWRPPRLPRPRPRPSLEPRP	0.067
RRIRMRPPRLPRPRPRPMNNPRP	-0.411
RRIRPRPPRLPRPRPRPSCGPRP	0.137
RRIRPRPPRLPRPRPRPRTSPRP	0.59
RRIRARPPRLPRPRPRPHSEPRP	-0.0859
RRIRHRPPRLPRPRPRPIKRPRP	-0.0154
RRIRFRPPRLPRPRPRPHHFPRP	-0.053
RRIRQRPPRLPRPRPRPQHFPRP	0.14
RRIRKRPPRLPRPRPRPIPAPRP	0.945
RRIRCRPPRLPRPRPRPRAYPRP	-0.35
RRIRWRPPRLPRPRPRPQWHPRP	0.0415
RRIRSRPPRLPRPRPRPDFSPRP	0.0706
RRIRPRPPRLPRPRPRPEDWPRP	0.391
RRIRGRPPRLPRPRPRPIKYPRP	0.00555
RRIRMRPPRLPRPRPRPGRFPRP	0.0931
RRIRDRPPRLPRPRPRPGTYPRP	-0.227
RRIRQRPPRLPRPRPRPLGYPRP	-0.0704
